{"source": "the supplement of paper PMC9112550", "about": "“Optimization of the antimicrobial peptide Bac7 by deep mutational scanning” (BMC Biology, 2022);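 note: peptides expressed intracellularly from a pBAD plasmid library in pooled LB shake-flask culture, induced with 0.3% L-arabinose, DNA abundance read by NGS, three biological replicates, DESeq2 with apeglm shrinkage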", "system": "Escherichia coli TOP10", "assay": "shrunken log2 fold change of peptide-encoding DNA abundance (4.5 h post-induction vs induction); higher = less antimicrobial activity (less host growth inhibition)", "settings": "time post-induction: 4.5 h; library: site-saturation at positions 5, 18, 19, 20"}
{"sequence": "RRIRGRPPRLPRPRPRPTFKPRP", "values": [{"measurement": "shrunken log2 fold change", "result": 0.538}]}
{"sequence": "RRIRSRPPRLPRPRPRPRHTPRP", "values": [{"measurement": "shrunken log2 fold change", "result": 0.0335}]}
{"sequence": "RRIRSRPPRLPRPRPRPYRRPRP", "values": [{"measurement": "shrunken log2 fold change", "result": -0.0841}]}
{"sequence": "RRIRMRPPRLPRPRPRPAEDPRP", "values": [{"measurement": "shrunken log2 fold change", "result": 1.93}]}
{"sequence": "RRIRMRPPRLPRPRPRPFHCPRP", "values": [{"measurement": "shrunken log2 fold change", "result": 0.0959}]}
{"sequence": "RRIRSRPPRLPRPRPRPAQGPRP", "values": [{"measurement": "shrunken log2 fold change", "result": 0.19}]}
{"sequence": "RRIRCRPPRLPRPRPRPRKEPRP", "values": [{"measurement": "shrunken log2 fold change", "result": 0.239}]}
{"sequence": "RRIRFRPPRLPRPRPRPSLSPRP", "values": [{"measurement": "shrunken log2 fold change", "result": -0.623}]}
{"sequence": "RRIRVRPPRLPRPRPRPTPQPRP", "values": [{"measurement": "shrunken log2 fold change", "result": 0.279}]}
{"sequence": "RRIRIRPPRLPRPRPRPPQFPRP", "values": [{"measurement": "shrunken log2 fold change", "result": -0.195}]}
{"sequence": "RRIRKRPPRLPRPRPRPAREPRP", "values": [{"measurement": "shrunken log2 fold change", "result": 0.89}]}
{"sequence": "RRIRFRPPRLPRPRPRPQNDPRP", "values": [{"measurement": "shrunken log2 fold change", "result": -0.296}]}
{"sequence": "RRIRMRPPRLPRPRPRPVTIPRP", "values": [{"measurement": "shrunken log2 fold change", "result": -0.0206}]}
{"sequence": "RRIRHRPPRLPRPRPRPFMVPRP", "values": [{"measurement": "shrunken log2 fold change", "result": -0.43}]}
{"sequence": "RRIRTRPPRLPRPRPRPMVHPRP", "values": [{"measurement": "shrunken log2 fold change", "result": -0.00211}]}
{"sequence": "RRIRVRPPRLPRPRPRPNEMPRP", "values": [{"measurement": "shrunken log2 fold change", "result": 0.0222}]}
{"sequence": "RRIRERPPRLPRPRPRPIIKPRP", "values": [{"measurement": "shrunken log2 fold change", "result": -0.703}]}
{"sequence": "RRIRKRPPRLPRPRPRPDHCPRP", "values": [{"measurement": "shrunken log2 fold change", "result": 0.00904}]}
{"sequence": "RRIRSRPPRLPRPRPRPFEAPRP", "values": [{"measurement": "shrunken log2 fold change", "result": 0.14}]}
{"sequence": "RRIRERPPRLPRPRPRPGHTPRP", "values": [{"measurement": "shrunken log2 fold change", "result": -0.0164}]}
{"sequence": "RRIRARPPRLPRPRPRPALEPRP", "values": [{"measurement": "shrunken log2 fold change", "result": 1.19}]}
{"sequence": "RRIRGRPPRLPRPRPRPTFIPRP", "values": [{"measurement": "shrunken log2 fold change", "result": -0.0836}]}
{"sequence": "RRIRPRPPRLPRPRPRPHCWPRP", "values": [{"measurement": "shrunken log2 fold change", "result": 0.151}]}
{"sequence": "RRIRLRPPRLPRPRPRPNKYPRP", "values": [{"measurement": "shrunken log2 fold change", "result": -0.742}]}
{"sequence": "RRIRARPPRLPRPRPRPLFNPRP", "values": [{"measurement": "shrunken log2 fold change", "result": -0.064}]}
{"sequence": "RRIRMRPPRLPRPRPRPTDEPRP", "values": [{"measurement": "shrunken log2 fold change", "result": 0.116}]}
{"sequence": "RRIRKRPPRLPRPRPRPISNPRP", "values": [{"measurement": "shrunken log2 fold change", "result": 0.153}]}
{"sequence": "RRIRNRPPRLPRPRPRPCGHPRP", "values": [{"measurement": "shrunken log2 fold change", "result": 0.0743}]}
{"sequence": "RRIRFRPPRLPRPRPRPRVNPRP", "values": [{"measurement": "shrunken log2 fold change", "result": -0.116}]}
{"sequence": "RRIRTRPPRLPRPRPRPFWFPRP", "values": [{"measurement": "shrunken log2 fold change", "result": 0.526}]}
{"sequence": "RRIRTRPPRLPRPRPRPHIYPRP", "values": [{"measurement": "shrunken log2 fold change", "result": -0.00363}]}
{"sequence": "RRIRKRPPRLPRPRPRPKWFPRP", "values": [{"measurement": "shrunken log2 fold change", "result": -0.039}]}
{"sequence": "RRIRDRPPRLPRPRPRPRYPPRP", "values": [{"measurement": "shrunken log2 fold change", "result": -0.0457}]}
{"sequence": "RRIRLRPPRLPRPRPRPRWCPRP", "values": [{"measurement": "shrunken log2 fold change", "result": -0.0806}]}
{"sequence": "RRIRFRPPRLPRPRPRPVCTPRP", "values": [{"measurement": "shrunken log2 fold change", "result": -0.324}]}
{"sequence": "RRIRGRPPRLPRPRPRPRADPRP", "values": [{"measurement": "shrunken log2 fold change", "result": 1.17}]}
{"sequence": "RRIRKRPPRLPRPRPRPTYQPRP", "values": [{"measurement": "shrunken log2 fold change", "result": -0.191}]}
{"sequence": "RRIRGRPPRLPRPRPRPQWFPRP", "values": [{"measurement": "shrunken log2 fold change", "result": 0.282}]}
{"sequence": "RRIRIRPPRLPRPRPRPAIMPRP", "values": [{"measurement": "shrunken log2 fold change", "result": -0.565}]}
{"sequence": "RRIRERPPRLPRPRPRPYQVPRP", "values": [{"measurement": "shrunken log2 fold change", "result": -0.109}]}
{"sequence": "RRIRIRPPRLPRPRPRPYTLPRP", "values": [{"measurement": "shrunken log2 fold change", "result": -0.478}]}
{"sequence": "RRIRARPPRLPRPRPRPSKVPRP", "values": [{"measurement": "shrunken log2 fold change", "result": -0.0951}]}
{"sequence": "RRIRWRPPRLPRPRPRPHSVPRP", "values": [{"measurement": "shrunken log2 fold change", "result": 0.0489}]}
{"sequence": "RRIRQRPPRLPRPRPRPFAAPRP", "values": [{"measurement": "shrunken log2 fold change", "result": 0.336}]}
{"sequence": "RRIRIRPPRLPRPRPRPQTCPRP", "values": [{"measurement": "shrunken log2 fold change", "result": -0.141}]}
{"sequence": "RRIRQRPPRLPRPRPRPYPAPRP", "values": [{"measurement": "shrunken log2 fold change", "result": -0.289}]}
{"sequence": "RRIRGRPPRLPRPRPRPLMRPRP", "values": [{"measurement": "shrunken log2 fold change", "result": 1.61}]}
{"sequence": "RRIRVRPPRLPRPRPRPVGYPRP", "values": [{"measurement": "shrunken log2 fold change", "result": -0.0725}]}
{"sequence": "RRIRARPPRLPRPRPRPIHIPRP", "values": [{"measurement": "shrunken log2 fold change", "result": -0.24}]}
{"sequence": "RRIRDRPPRLPRPRPRPNKYPRP", "values": [{"measurement": "shrunken log2 fold change", "result": -0.828}]}
{"sequence": "RRIRWRPPRLPRPRPRPVTWPRP", "values": [{"measurement": "shrunken log2 fold change", "result": -0.017}]}
{"sequence": "RRIRIRPPRLPRPRPRPTTLPRP", "values": [{"measurement": "shrunken log2 fold change", "result": -0.506}]}
{"sequence": "RRIRERPPRLPRPRPRPFNVPRP", "values": [{"measurement": "shrunken log2 fold change", "result": -0.0305}]}
{"sequence": "RRIRIRPPRLPRPRPRPGERPRP", "values": [{"measurement": "shrunken log2 fold change", "result": -0.0896}]}
{"sequence": "RRIRDRPPRLPRPRPRPRKEPRP", "values": [{"measurement": "shrunken log2 fold change", "result": -0.00977}]}
{"sequence": "RRIRCRPPRLPRPRPRPTLIPRP", "values": [{"measurement": "shrunken log2 fold change", "result": 1.65}]}
{"sequence": "RRIRIRPPRLPRPRPRPCHVPRP", "values": [{"measurement": "shrunken log2 fold change", "result": -0.401}]}
{"sequence": "RRIRYRPPRLPRPRPRPNGAPRP", "values": [{"measurement": "shrunken log2 fold change", "result": -0.0032}]}
{"sequence": "RRIRARPPRLPRPRPRPYMYPRP", "values": [{"measurement": "shrunken log2 fold change", "result": -0.635}]}
{"sequence": "RRIRCRPPRLPRPRPRPQYMPRP", "values": [{"measurement": "shrunken log2 fold change", "result": -0.784}]}
{"sequence": "RRIRMRPPRLPRPRPRPHQQPRP", "values": [{"measurement": "shrunken log2 fold change", "result": 0.107}]}
{"sequence": "RRIRRRPPRLPRPRPRPIIRPRP", "values": [{"measurement": "shrunken log2 fold change", "result": 0.0674}]}
{"sequence": "RRIRIRPPRLPRPRPRPMVPPRP", "values": [{"measurement": "shrunken log2 fold change", "result": 0.0231}]}
{"sequence": "RRIRSRPPRLPRPRPRPAAFPRP", "values": [{"measurement": "shrunken log2 fold change", "result": 0.29}]}
{"sequence": "RRIRCRPPRLPRPRPRPKTQPRP", "values": [{"measurement": "shrunken log2 fold change", "result": 0.0268}]}
{"sequence": "RRIRWRPPRLPRPRPRPYTWPRP", "values": [{"measurement": "shrunken log2 fold change", "result": -0.397}]}
{"sequence": "RRIRNRPPRLPRPRPRPWVIPRP", "values": [{"measurement": "shrunken log2 fold change", "result": -0.552}]}
{"sequence": "RRIRDRPPRLPRPRPRPPHPPRP", "values": [{"measurement": "shrunken log2 fold change", "result": 0.235}]}
{"sequence": "RRIRMRPPRLPRPRPRPGPSPRP", "values": [{"measurement": "shrunken log2 fold change", "result": 1.23}]}
{"sequence": "RRIRLRPPRLPRPRPRPCLSPRP", "values": [{"measurement": "shrunken log2 fold change", "result": 0.00058}]}
{"sequence": "RRIRSRPPRLPRPRPRPATMPRP", "values": [{"measurement": "shrunken log2 fold change", "result": 0.00669}]}
{"sequence": "RRIRSRPPRLPRPRPRPMNHPRP", "values": [{"measurement": "shrunken log2 fold change", "result": -0.256}]}
{"sequence": "RRIRWRPPRLPRPRPRPRITPRP", "values": [{"measurement": "shrunken log2 fold change", "result": 0.00862}]}
{"sequence": "RRIRWRPPRLPRPRPRPNKPPRP", "values": [{"measurement": "shrunken log2 fold change", "result": -0.0749}]}
{"sequence": "RRIRSRPPRLPRPRPRPPPEPRP", "values": [{"measurement": "shrunken log2 fold change", "result": 0.852}]}
{"sequence": "RRIRCRPPRLPRPRPRPDKHPRP", "values": [{"measurement": "shrunken log2 fold change", "result": -0.333}]}
{"sequence": "RRIRQRPPRLPRPRPRPASKPRP", "values": [{"measurement": "shrunken log2 fold change", "result": 0.0503}]}
{"sequence": "RRIRDRPPRLPRPRPRPYDLPRP", "values": [{"measurement": "shrunken log2 fold change", "result": -0.00674}]}
{"sequence": "RRIRCRPPRLPRPRPRPCQGPRP", "values": [{"measurement": "shrunken log2 fold change", "result": -0.0713}]}
{"sequence": "RRIRKRPPRLPRPRPRPENDPRP", "values": [{"measurement": "shrunken log2 fold change", "result": -0.0386}]}
{"sequence": "RRIRGRPPRLPRPRPRPKCSPRP", "values": [{"measurement": "shrunken log2 fold change", "result": 0.704}]}
{"sequence": "RRIRNRPPRLPRPRPRPSTCPRP", "values": [{"measurement": "shrunken log2 fold change", "result": -0.186}]}
{"sequence": "RRIRQRPPRLPRPRPRPRYYPRP", "values": [{"measurement": "shrunken log2 fold change", "result": -0.465}]}
{"sequence": "RRIRTRPPRLPRPRPRPQMKPRP", "values": [{"measurement": "shrunken log2 fold change", "result": -0.449}]}
{"sequence": "RRIRIRPPRLPRPRPRPVQCPRP", "values": [{"measurement": "shrunken log2 fold change", "result": 0.0517}]}
{"sequence": "RRIRIRPPRLPRPRPRPHYYPRP", "values": [{"measurement": "shrunken log2 fold change", "result": -0.413}]}
{"sequence": "RRIRYRPPRLPRPRPRPGPIPRP", "values": [{"measurement": "shrunken log2 fold change", "result": -0.0295}]}
{"sequence": "RRIRERPPRLPRPRPRPFGMPRP", "values": [{"measurement": "shrunken log2 fold change", "result": -0.0947}]}
{"sequence": "RRIRCRPPRLPRPRPRPGKVPRP", "values": [{"measurement": "shrunken log2 fold change", "result": 0.181}]}
{"sequence": "RRIRDRPPRLPRPRPRPLHEPRP", "values": [{"measurement": "shrunken log2 fold change", "result": -0.129}]}
{"sequence": "RRIRPRPPRLPRPRPRPHFAPRP", "values": [{"measurement": "shrunken log2 fold change", "result": 0.284}]}
